Patent US20240279304A1, “DSG2 COMPOSITIONS AND METHODS” (Arvada Therapeutics, Inc., priority 2021, published 2024)
Blank lines part the entries; values can stand above or below the molecule they belong to.

Experiments:
anti-DSG2 antibody [1] = assay: anti-DSG2 antibody MSD assay; inhibition by the fusion polypeptide (fraction C per table title); antibody at 1000 ng/mL
anti-DSG2 antibody [2] = assay: anti-DSG2 antibody MSD assay; inhibition by the fusion polypeptide (fraction C per table title); antibody at 200 ng/mL
[3] = system: human iPSC cardiomyocytes; assay: CiPA multielectrode array (MEA) assay, sodium spike; assay type: cell-based; conditions: anti-DSG2 antibodies 0.5 μg/mL; lidocaine 10 μM; negative controls 0.5 g/mL as printed; 0 to 96 hours
Description: To determine the effect of anti-DSG2 antibodies in cardiomyocytes, the cardiac in vitro proarrhythmia (CiPA) assay was performed (Sager et al. Am Heart J 2014; 167:292-300; the contents of which are herein incorporated by reference in its entirety). CiPA is envisioned to consist of four components: (1) an evaluation of the effects of test agents on cardiac ion channel assays; (2) in silico modeling of the cardiac action potential based on the ion channel results to integrate the data with cardiac function; (3) experimental measurement of test agent effects in human ventricular myocytes to confirm the modeling result; and (4) scoring the results. […] The sodium spike quantified below is a measurement of the specific sodium channel current in the cardiomyocyte and is also described in Blinova K, et al. Cell Rep. […] The parameters evaluated include measuring a change in the spike in the component of electrical signal propagation (e.g. sodium spike) and cell index—a function of cell impedance and cell number. […]
Commercially available anti-DSG2 antibodies were tested in the cardiomyocyte CiPA assay. […] The voltage (μV) is measured at time intervals of 0, 1 hour, 12 hours, 24 hours, 48 hours, 72 hours, and 96 hours. […]

[4] = system: human iPSC-derived cardiomyocytes; assay: CiPA multielectrode array (MEA) assay, cell index; assay type: cell-based
Description: To determine the effect of anti-DSG2 antibodies in cardiomyocytes, the cardiac in vitro proarrhythmia (CiPA) assay was performed (Sager et al. Am Heart J 2014; 167:292-300; the contents of which are herein incorporated by reference in its entirety). CiPA is envisioned to consist of four components: (1) an evaluation of the effects of test agents on cardiac ion channel assays; (2) in silico modeling of the cardiac action potential based on the ion channel results to integrate the data with cardiac function; (3) experimental measurement of test agent effects in human ventricular myocytes to confirm the modeling result; and (4) scoring the results. The multielectrode array (MEA) assay is a component of CiPA which uses human induced pluripotent stem cell (iPSC)-derived cardiomyocytes to evaluate two-dimensional excitation propagation by recording spontaneous ECG-like field potentials. The sodium spike quantified below is a measurement of the specific sodium channel current in the cardiomyocyte and is also described in Blinova K, et al. Cell Rep. 2018 Sep. 25; 24(13):3582-3592 (the contents of which are herein incorporated by reference in its entirety). CiPA is considered a clinically validated cardiomyocyte-based assay by the FDA and the EMA. […] The parameters evaluated include measuring a change in the spike in the component of electrical signal propagation (e.g. sodium spike) and cell index—a function of cell impedance and cell number. Changes in sodium spike may be indicative of arrhythmia and a change in cell index (CI) may be indicative of changes to cell connectivity.
Cell index is inversely related the cell layer's conductivity to electrical current. Increased conductivity across the cell layer, may indicate that there are more gaps in the cell layer, implying that the cells are less well-adhered to each other. Thus, increased conductivity across the cell layer, may result in lower cell index. […] The concentration of anti-DSG2 antibodies varied from 0.00005 μg/mL to 5 μg/mL. […] The concentration of lidocaine varied from 3 μM to 100 μM. […] The concentration of anti-DSG2 antibodies varied from 0.00005 μg/mL to 5 μg/mL.

anti-DSG2 antibody [5] = assay: electrochemical immunoassay; fusion polypeptide at 5 mg/mL (so in the source), antibody at 500 ng/mL
anti-DSG2 antibody [6] = assay: anti-DSG2 antibody MSD assay; inhibition of the antibody signal by the fusion polypeptide; antibody at 1000 ng/mL
anti-DSG2 antibody [7] = assay: anti-DSG2 antibody MSD assay; inhibition of the antibody signal by the fusion polypeptide; antibody at 200 ng/mL
[8] = system: ARVC serum (anti-DSG2 antibodies in serum obtained from ARVC patients); assay: anti-DSG2 antibody MSD assay, blocking of ARVC patient serum; assay type: binding, human; parameters: % inhibition: concentration or dose not given beside the values; conditions: for % inhibition: fraction C (table title)
Description: (§1) The DSG2 fusion polypeptides were tested for the ability to block anti-DSG2 antibody by an anti-DSG2 antibody meso scale discovery (MSD) assay. […] The DSG2 fusion polypeptides were subjected to size exclusion chromatography and different elution fractions were examined. […] As shown in Table 7 and FIG. 1B, FIG. 1C, and FIG. 1D, enriching for fraction C improved the ability of the DSG2 fusion polypeptides to block ARVC patient serum.
ARVC diagnosis is based on complex tool known as Task Force Criteria, which can lead to varying levels of conviction about ARVC diagnosis. The utility of DSG2 antibodies as an indicator of ARVC disease state and severity was explored. Approximately 50 cc serum was collected from diagnosed ARVC patients. A total of 10 ARVC patients and 5 healthy controls were used for the analysis. ARVC serum samples were separated into more robust diagnosis and less robust diagnosis, based on available data in the patient medical records and anti-DSG2 antibody levels were compared using an anti-DSG2 antibody meso scale discovery (MSD)-based assay.

[9] = Dynamic light scattering (DLS) of DSG2 fusion polypeptides; assay type: physicochemical; conditions: average polymer distribution index
From the text: 6 candidates were compared to the reference sample.

anti-DSG2 antibody [10] = assay: anti-DSG2 antibody meso scale discovery (MSD) assay, blocking of anti-DSG2 antibody; assay type: binding; conditions: for % inhibition: fraction C (table title)
Description: as §1

[11] = sample: Anti-DSG2 antibody (200 ng/mL) control
[12] = sample: Anti-DSG2 antibody (1000 ng/mL) control

Molecule: CCN(CC)CC(=O)Nc1c(C)cccc1C [Lidocaine, lidocaine]
effect on cardiomyocyte sodium spike (in words) [3]: dampen the sodium spike
Cell Index (+/- SEM) ([4]; 3 μM): 19.9 (2.84)
Cell Index (+/- SEM) ([4]; 10 μM): 20.2 (3.1)
Cell Index (+/- SEM) ([4]; 30 μM): 18.7 (2.0)
Cell Index (+/- SEM) ([4]; 100 μM): 11.0 (4.8)
effect on cell index (in words) ([4]; lidocaine 3 μM to 100 μM, antibodies 0.00005 μg/mL to 5 μg/mL): marked reduction in cell index and likely cell death

Molecule: DSG2-(IgG4)Fc (DSG2FP#6) (Fc fusion)
% inhibition (anti-DSG2 antibody [5]): > 80%

Molecule: DSG2-GGGGS-(IgG1)Fc (DSG2FP#3) (Fc fusion)
% inhibition (anti-DSG2 antibody [1]): 85.5%
% inhibition (anti-DSG2 antibody [2]): 61.2%

Molecule: recombinant human desmoglein-2 Fc chimera protein, CF (DSG2FP#1) (Fc fusion)
% inhibition (anti-DSG2 antibody [6]): 88.4%
% inhibition (anti-DSG2 antibody [7]): 63.8%

B1: DSG2FP#4: DSG2 extracellular domain (50-609); linker EAAAK; IgG1 Fc 104-330 (L234A, L235A, P329G) SEQ ID NO: 31 (protein)
chain: AWITAPVALREGEDLSKKNPIAKIHSDLAEERGLKITYKYTGKGITEPPFGIFVFNKDTGELNVTSILDREETPFFLLTGYALDARGNNVEKPLELRIKVLDINDNEPVFTQDVFVGSVEELSAAHTLVMKINATDADEPNTLNSKISYRIVSLEPAYPPVFYLNKDTGEIYTTSVTLDREEHSSYTLTVEARDGNGEVTDKPVKQAQVQIRILDVNDNIPVVENKVLEGMVEENQVNVEVTRIKVFDADEIGSDNWLANFTFASGNEGGYFHIETDAQTNEGIVTLIKEVDYEEMKNLDFSVIVANKAAFHKSIRSKYKPTPIPIKVKVKNVKEGIHFKSSVISIYVSESMDRSSKGQIIGNFQAFDEDTGLPAHARYVKLEDRDNWISVDSVTSEIKLAKLPDFESRYVQNGTYTVKIVAISEDYPRKTITGTVLINVEDINDNCPTLIEPVQTICHDAEYVNVTAEDLDGHPNSGPFSFSVIDKPPGMAEKWKIARQESTSVLLQQSEKKLGRSEIQFLISDNQGFSCPEKQVLTLTVCECLHGSGCREAQHDSYVGEAAAKDKTHTCPPCPAPEAAGGPSVFLFPPKPKDTLMISRTPEVTCVVVDVSHEDPEVKFNWYVDGVEVHNAKTKPREEQYNSTYRVVSVLTVLHQDWLNGKEYKCKVSNKALGAPIEKTISKAKGQPREPQVYTLPPSRDELTKNQVSLTCLVKGFYPSDIAVEWESNGQPENNYKTTPPVLDSDGSFFLYSKLTVDKSRWQQGNVFSCSVMHEALHNHYTQKSLSLSPGK
% inhibition ([8]; sample: ARVC serum 1): 6.0%
% inhibition ([8]; sample: ARVC serum 2): 9.2%
% inhibition ([8]; sample: ARVC serum 3): −8.0%
% inhibition ([8]; sample: ARVC serum 4): 0.8%
% inhibition ([8]; sample: ARVC serum 5): 2.0%
PDI [9]: 0.32
ability to bind to and block anti-DSG2 antibody (in words) (anti-DSG2 antibody [10]): able to bind to and block anti-DSG2 antibodies
% inhibition (anti-DSG2 antibody [10]; [11]): 61.2%
% inhibition (anti-DSG2 antibody [10]; [12]): 85.5%
% inhibition (anti-DSG2 antibody [10]; sample: no antibody control): 0.7%

B2: DSG2FP#3: DSG2 extracellular domain (50-609); linker GGGGS; IgG1 Fc 104-330 (L234A, L235A, P329G) SEQ ID NO: 31 (protein)
chain: AWITAPVALREGEDLSKKNPIAKIHSDLAEERGLKITYKYTGKGITEPPFGIFVFNKDTGELNVTSILDREETPFFLLTGYALDARGNNVEKPLELRIKVLDINDNEPVFTQDVFVGSVEELSAAHTLVMKINATDADEPNTLNSKISYRIVSLEPAYPPVFYLNKDTGEIYTTSVTLDREEHSSYTLTVEARDGNGEVTDKPVKQAQVQIRILDVNDNIPVVENKVLEGMVEENQVNVEVTRIKVFDADEIGSDNWLANFTFASGNEGGYFHIETDAQTNEGIVTLIKEVDYEEMKNLDFSVIVANKAAFHKSIRSKYKPTPIPIKVKVKNVKEGIHFKSSVISIYVSESMDRSSKGQIIGNFQAFDEDTGLPAHARYVKLEDRDNWISVDSVTSEIKLAKLPDFESRYVQNGTYTVKIVAISEDYPRKTITGTVLINVEDINDNCPTLIEPVQTICHDAEYVNVTAEDLDGHPNSGPFSFSVIDKPPGMAEKWKIARQESTSVLLQQSEKKLGRSEIQFLISDNQGFSCPEKQVLTLTVCECLHGSGCREAQHDSYVGGGGGGSDKTHTCPPCPAPEAAGGPSVFLFPPKPKDTLMISRTPEVTCVVVDVSHEDPEVKFNWYVDGVEVHNAKTKPREEQYNSTYRVVSVLTVLHQDWLNGKEYKCKVSNKALGAPIEKTISKAKGQPREPQVYTLPPSRDELTKNQVSLTCLVKGFYPSDIAVEWESNGQPENNYKTTPPVLDSDGSFFLYSKLTVDKSRWQQGNVFSCSVMHEALHNHYTQKSLSLSPGK
effect of enriching for fraction C on ability to block ARVC patient serum (in words) ([8]; fraction C vs whole preparation, FIG. 1B-1D): more pronounced
% inhibition ([8]; sample: ARVC serum 1): 9.2%
% inhibition ([8]; sample: ARVC serum 2): 27.6%
% inhibition ([8]; sample: ARVC serum 3): 15.5%
% inhibition ([8]; sample: ARVC serum 4): −5.6%
% inhibition ([8]; sample: ARVC serum 5): 20.6%
PDI [9]: 0.30
ability to bind to and block anti-DSG2 antibody (in words) (anti-DSG2 antibody [10]): able to bind to and block anti-DSG2 antibodies
% inhibition (anti-DSG2 antibody [10]; [11]): 61.2%
% inhibition (anti-DSG2 antibody [10]; [12]): 85.5%
% inhibition (anti-DSG2 antibody [10]; sample: no antibody control): 0.7%

The remaining lines, values ahead:

% inhibition (anti-DSG2 antibody [1]): 81.6%
% inhibition (anti-DSG2 antibody [2]): 54.5%
Molecule: DSG2-(IgG1)Fc (DSG2FP#2) (Fc fusion)

% inhibition (anti-DSG2 antibody [1]): 85.5%
% inhibition (anti-DSG2 antibody [2]): 61.2%
Molecule: DSG2-EAAAK-(IgG1)Fc (DSG2FP#4) (Fc fusion)

% inhibition (anti-DSG2 antibody [5]): > 80%
Molecule: DSG2-GGGGS-(IgG4)Fc (DSG2FP#7) (Fc fusion)
